PMC2172933

Target: neural cell adhesion molecule 140 (NCAM140), rat, expressed in CHO cells (rat) (UniProt P13596)
Assay: co-IP

Sequence of UniProt P13596 (P13596 20-858): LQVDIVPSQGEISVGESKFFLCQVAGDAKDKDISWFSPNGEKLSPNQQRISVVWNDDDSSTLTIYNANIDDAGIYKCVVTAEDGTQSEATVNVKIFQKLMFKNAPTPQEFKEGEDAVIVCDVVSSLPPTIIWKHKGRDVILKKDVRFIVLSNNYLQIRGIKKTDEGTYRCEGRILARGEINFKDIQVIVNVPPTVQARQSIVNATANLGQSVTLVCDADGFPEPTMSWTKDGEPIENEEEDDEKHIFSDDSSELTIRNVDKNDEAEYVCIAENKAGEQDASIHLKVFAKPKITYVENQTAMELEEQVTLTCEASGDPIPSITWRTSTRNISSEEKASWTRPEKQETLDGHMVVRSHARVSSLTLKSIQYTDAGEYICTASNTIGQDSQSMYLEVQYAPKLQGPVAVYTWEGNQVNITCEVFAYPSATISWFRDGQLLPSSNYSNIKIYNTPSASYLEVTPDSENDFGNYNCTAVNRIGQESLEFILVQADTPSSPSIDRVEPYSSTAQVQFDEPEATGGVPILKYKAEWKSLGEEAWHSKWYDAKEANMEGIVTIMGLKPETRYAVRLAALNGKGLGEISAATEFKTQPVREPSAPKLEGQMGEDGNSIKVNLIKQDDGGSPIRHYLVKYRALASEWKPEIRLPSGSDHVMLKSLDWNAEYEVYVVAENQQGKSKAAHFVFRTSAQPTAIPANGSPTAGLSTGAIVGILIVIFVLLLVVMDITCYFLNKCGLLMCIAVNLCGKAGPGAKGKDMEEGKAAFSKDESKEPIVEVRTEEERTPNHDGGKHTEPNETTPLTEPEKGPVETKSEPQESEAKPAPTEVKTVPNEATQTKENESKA

βI spectrin, endogenous in CHO cells, A0A9J7GYU9 1-2329
percent of the amount of spectrin that coprecipitated with NCAM180 (set to 100%): 69.8%
